Test results published in publication doi:10.1101/2020.07.24.219675.
pKd: −log10 of the molar value.

Target: sapC-PUMA (protein chimera of saposin C and the BH3 domain of PUMA)
Experiment: NMR titration

pKd: > 6.51
koff: < 310 s⁻¹
stoichiometry N: 1
Substance: Bcl-xL-ΔTM (Bcl-xL without the transmembrane domain) (domain or fragment)
